Reference: patent publication CN115992129A (YEASEN BIOLOGICAL TECH SHANGHAI CO LTD, dated 2023)

Molecular target: T1, BSA (UniProt P02769 25-607)
T1 construct: Negative control antigen in ELISA; also called BSA对照
Experiment: ELISA, BSA coated and blocked as control, HRP anti-IgY secondary

T1 sequence (P02769 25-607 limits assumed): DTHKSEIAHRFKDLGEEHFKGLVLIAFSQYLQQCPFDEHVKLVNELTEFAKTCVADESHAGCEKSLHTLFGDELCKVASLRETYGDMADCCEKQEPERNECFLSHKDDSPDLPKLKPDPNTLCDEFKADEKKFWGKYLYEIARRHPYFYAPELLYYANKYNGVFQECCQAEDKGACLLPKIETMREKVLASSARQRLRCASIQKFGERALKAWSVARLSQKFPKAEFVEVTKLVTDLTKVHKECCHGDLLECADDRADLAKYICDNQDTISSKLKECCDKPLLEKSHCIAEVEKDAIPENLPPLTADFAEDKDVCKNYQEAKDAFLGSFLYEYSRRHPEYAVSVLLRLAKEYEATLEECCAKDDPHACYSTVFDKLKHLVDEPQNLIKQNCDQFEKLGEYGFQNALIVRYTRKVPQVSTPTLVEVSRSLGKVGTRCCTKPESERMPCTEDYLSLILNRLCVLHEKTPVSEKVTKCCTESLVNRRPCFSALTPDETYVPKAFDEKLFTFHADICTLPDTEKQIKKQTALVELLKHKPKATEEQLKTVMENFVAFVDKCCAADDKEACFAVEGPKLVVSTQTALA

| Binder | binding result |
| --- | --- |
| ProteinA抗体IgY-80 (antibody, V domains shown, Biotin-conjugated as the detection antibody in the sandwich ELISA) VH: AVTLDESGGGLQTPGGTLSLVCKASGFTFSDRGMHWVRQAPGKGLEWVAGTYTSGSITYYAPAVNGRATISRDNGQSTLRLQLNNLRAEDSGTYYCARDFGPSGWNAGSIDAWGHGTEVIVSS VL: QAALTQPSSVSANLGGTVKITCSGGGSRYGYMYGWIQQTSPGSAPVTVIYDNTNRPSNIPSRFSGSLSGSTNTLTITGVQAEDEAVYFCGSYEGTTLTFGAGTTLTVL | no binding (tested: 1μg/ml, two-fold dilutions) |
| ProteinA抗体IgY-81 (antibody, V domains shown, Coating (capture) antibody in the sandwich ELISA) VH: AVTLDESGGGLQTPGGALSLVCKASGFTFSSNGMGWVRQAPGKGLEYVASISNDGSLTDYASPVKGRATISRDNGQSTVRLQLNNLRAEDTGTYYCAKSPGGGWLADPIDAWGRGTEVIVSS VL: QAALTQPASVSANPGETVQITCSGGGSSRYYGWYQQKSPGSAPVTLIYDNINRPSGIPSRFSGSTSGSTGTLSITGVRAEDEAVYYCGSFDSSGTGIFGAGTTLTVL | no binding (tested: 1μg/ml, two-fold dilutions) |
